Substitutions are numbered along the chain they refer to. Numbers in names are those of the source. Where “and” joins values, the source holds several entries; their conditions need not be identical. Equal entries are not always repeated.
T1: Cas10 (Csm1);Csm2;Csm3;Csm4 (Streptococcus thermophilus …, UniProt A0A0A7HFE1;A0A0A7HIX1;A0A0A7HIF0;A0A0A7HGA1 1-758;1-121;1-220;1-299, |||)
T1 sequence 1: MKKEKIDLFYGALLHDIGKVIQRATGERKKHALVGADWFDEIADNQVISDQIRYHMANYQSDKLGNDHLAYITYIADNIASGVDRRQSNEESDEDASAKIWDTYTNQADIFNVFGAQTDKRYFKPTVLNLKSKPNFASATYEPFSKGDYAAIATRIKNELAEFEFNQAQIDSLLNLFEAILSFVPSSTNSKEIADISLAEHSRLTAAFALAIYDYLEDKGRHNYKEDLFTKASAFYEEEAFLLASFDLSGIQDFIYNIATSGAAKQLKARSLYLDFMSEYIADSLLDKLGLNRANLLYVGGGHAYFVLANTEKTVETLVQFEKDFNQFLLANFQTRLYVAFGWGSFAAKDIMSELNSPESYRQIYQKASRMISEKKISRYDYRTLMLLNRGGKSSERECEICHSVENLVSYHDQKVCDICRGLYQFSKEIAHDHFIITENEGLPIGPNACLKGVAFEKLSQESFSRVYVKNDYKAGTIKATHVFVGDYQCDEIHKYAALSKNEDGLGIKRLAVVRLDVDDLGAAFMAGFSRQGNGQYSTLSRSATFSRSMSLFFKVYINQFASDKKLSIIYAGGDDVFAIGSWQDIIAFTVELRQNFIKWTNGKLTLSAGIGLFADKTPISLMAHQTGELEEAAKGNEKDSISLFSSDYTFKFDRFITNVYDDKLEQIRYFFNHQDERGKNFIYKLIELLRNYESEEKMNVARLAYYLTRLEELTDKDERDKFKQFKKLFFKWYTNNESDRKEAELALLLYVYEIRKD
T1 sequence 2: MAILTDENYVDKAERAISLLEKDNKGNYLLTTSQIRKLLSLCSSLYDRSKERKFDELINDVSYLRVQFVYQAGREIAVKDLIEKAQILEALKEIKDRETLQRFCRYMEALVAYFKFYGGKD
T1 sequence 3: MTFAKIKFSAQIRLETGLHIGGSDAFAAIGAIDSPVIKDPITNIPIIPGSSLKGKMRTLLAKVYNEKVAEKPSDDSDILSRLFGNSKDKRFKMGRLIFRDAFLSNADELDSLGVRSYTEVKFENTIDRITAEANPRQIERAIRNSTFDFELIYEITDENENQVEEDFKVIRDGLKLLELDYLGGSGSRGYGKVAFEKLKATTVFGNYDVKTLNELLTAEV
T1 sequence 4: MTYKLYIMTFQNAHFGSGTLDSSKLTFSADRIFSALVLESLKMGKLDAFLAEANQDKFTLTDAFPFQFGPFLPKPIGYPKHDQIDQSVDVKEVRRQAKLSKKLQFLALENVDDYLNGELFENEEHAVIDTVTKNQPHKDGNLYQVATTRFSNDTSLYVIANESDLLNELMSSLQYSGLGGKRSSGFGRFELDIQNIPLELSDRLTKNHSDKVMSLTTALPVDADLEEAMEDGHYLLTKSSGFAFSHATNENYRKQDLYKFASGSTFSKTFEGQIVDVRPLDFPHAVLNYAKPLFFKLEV

B1: Csm3 of the Streptococcus thermophilus type III-A Csm complex (wild type, apo state) (natural protein, Streptococcus thermophilus DGCC8004)
chain: T1 sequence 3
notes: Csm3, Streptococcus thermophilus DGCC8004; also called Csm3a
B2: Csm3 D33A of the Streptococcus thermophilus type III-A Csm complex (target ssRNA-bound state) (natural protein, Streptococcus thermophilus DGCC8004)
chain: T1 sequence 3 with D33A
notes: Csm3, Streptococcus thermophilus DGCC8004, with D33A to eliminate ssRNA cleavage
B3: Csm2 of the Streptococcus thermophilus type III-A Csm complex (natural protein, Streptococcus thermophilus DGCC8004)
chain: T1 sequence 2
notes: Csm2, Streptococcus thermophilus DGCC8004; csm2 is present both on the untagged gene cassette and on the His-tag plasmid, so the 3 or 5 copies in the complex may be a mix of tagged and untagged chains; No tag removal is described; also called Csm2a; Csm2b

Legend:
[1] = target: T1, Cas10 (Csm1);Csm2;Csm3;Csm4; assay: cryo-EM; small conformation, 3.3 A; endogenous ATP in Cas10; Cryo-EM: complex ~0.4 mg/mL, purified in 10 mM Tris-HCl pH 8.0, 150 mM NaCl, 3 mM DTT; grids blotted at 4 C; ternary reconstitution conditions not given; details: protein: recombinant;recombinant;recombinant;recombinant; tags: ;His (N-terminal, pET-28a);;; copies: 1;3;5;1; single strand, 1 copy
[2] = target: the molecule itself; assay: cryo-EM structure; apo state: StCsm complex with 40 nt crRNA, wild-type Csm3; big (3.4 Å) and small (3.3 Å) particle populations; ~0.4 mg/mL, buffer 10 mM Tris-HCl pH 8.0, 150 mM NaCl, 3 mM DTT
[3] = target: the molecule itself; assay: cryo-EM structure; target ssRNA-bound state: StCsm complex with 40 nt crRNA and 49 nt target ssRNA, Csm3 D33A; big (3.4 Å) and small (3.5 Å) particle populations; ~0.4 mg/mL, buffer 10 mM Tris-HCl pH 8.0, 150 mM NaCl, 3 mM DTT

Row | Binder | stoichiometry N [2] | further results
1 | ACGGAAACUUUCGUAACUGUUUAAUUCUGUUCACUUAUUC (ssRNA) [40 nt crRNA] | – | binding result [1]: binds
2 | B1 | 7 and 5 | –
3 | B2 | – | stoichiometry N [3]: 7 and 5
4 | B3 | 5 and 3 | –
